Experimental data: IntAct's records for PubMed 26728129

B1: Probable proton-coupled zinc antiporter SLC30A3 (Homo sapiens), Q99726 (parent)
chain: MEPSPAAGGLETTRLVSPRDRGGAGGSLRLKSLFTEPSEPLPEESKPVEMPFHHCHRDPLPPPGLTPERLHARRQLYAACAVCFVFMAGEVVGGYLAHSLAIMTDAAHLLADVGSMMGSLFSLWLSTRPATRTMTFGWHRSETLGALASVVSLWMVTGILLYLAFVRLLHSDYHIEGGAMLLTASIAVCANLLMAFVLHQAGPPHSHGSRGAEYAPLEEGPEEPLPLGNTSVRAAFVHVLGDLLQSFGVLAASILIYFKPQYKAADPISTFLFSICALGSTAPTLRDVLRILMEGTPRNVGFEPVRDTLLSVPGVRATHELHLWALTLTYHVASAHLAIDSTADPEAVLAEASSRLYSRFGFSSCTLQVEQYQPEMAQCLRCQEPPQA
partner: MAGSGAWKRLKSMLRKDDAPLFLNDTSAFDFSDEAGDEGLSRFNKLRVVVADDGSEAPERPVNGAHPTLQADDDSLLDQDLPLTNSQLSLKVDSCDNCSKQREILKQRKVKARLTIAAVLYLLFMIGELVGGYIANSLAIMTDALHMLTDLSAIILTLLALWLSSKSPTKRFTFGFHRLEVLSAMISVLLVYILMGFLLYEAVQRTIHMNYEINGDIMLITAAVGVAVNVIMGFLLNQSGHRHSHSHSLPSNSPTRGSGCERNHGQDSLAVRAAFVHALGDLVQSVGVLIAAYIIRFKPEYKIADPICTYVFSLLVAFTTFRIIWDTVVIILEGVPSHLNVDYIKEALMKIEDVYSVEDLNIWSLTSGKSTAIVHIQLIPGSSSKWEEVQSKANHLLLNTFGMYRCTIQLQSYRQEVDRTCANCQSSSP
B2: Calcium/manganese antiporter SLC30A10 (Homo sapiens), Q6XR72 (parent)
chain: MGRYSGKTCRLLFMLVLTVAFFVAELVSGYLGNSIALLSDSFNMLSDLISLCVGLSAGYIARRPTRGFSATYGYARAEVVGALSNAVFLTALCFTIFVEAVLRLARPERIDDPELVLIVGVLGLLVNVVGLLIFQDCAAWFACCLRGRSRRLQQRQQLAEGCVPGAFGGPQGAEDPRRAADPTAPGSDSAVTLRGTSVERKREKGATVFANVAGDSFNTQNEPEDMMKKEKKSEALNIRGVLLHVMGDALGSVVVVITAIIFYVLPLKSEDPCNWQCYIDPSLTVLMVIIILSSAFPLIKETAAILLQMVPKGVNMEELMSKLSAVPGISSVHEVHIWELVSGKIIATLHIKYPKDRGYQDASTKIREIFHHAGIHNVTIQFENVDLKEPLEQKDLLLLCNSPCISKGCAKQLCCPPGALPLAHVNGCAEHNGGPSLDTYGSDGLSRRDAREVAIEVSLDSCLSDHGQSLNKTQEDQCYVNRTHF
partner: B1 chain
B3: Probable proton-coupled zinc antiporter SLC30A3 (Homo sapiens), Q99726 (parent)
chain: B1 chain
partner: B2 chain

Variants of: B1
Conditions: with znt4_human SLC30A4, O14863

effect of a mutation on the interaction	Variant
decreasing interaction strength	Y262F
decreasing interaction strength	Y257F

Variants of: B2
Conditions: with znt3_human SLC30A3, Q99726

effect of a mutation on the interaction	Variant
decreasing interaction strength	Y4F

Variants of: B3
Conditions: with znt10_human SLC30A10, Q6XR72

effect of a mutation on the interaction	Variant
decreasing interaction strength	Y257F
decreasing interaction strength	Y262F
